One assay deals with HLA-A*26:01. The assay can be described thus: IEDB peptide-MHC binding, purified MHC/direct/fluorescence; filed as Kd, often an IC50 or EC50 that approximates it; ≥ and ≤ were set here for values at or beyond the usual limits of such assays.
The next assay concerns the target HLA-A*26:02. The description is as above.
A further assay concerns the target HLA-C*12:03. The description is as above.
Assay [1] concerns the target HLA-B*46:01. The assay can be described thus: IEDB peptide-MHC binding, purified MHC/competitive/fluorescence; filed as Kd, often an IC50 or EC50 that approximates it; ≥ and ≤ were set here for values at or beyond the usual limits of such assays. Conditions: source organism: Giardia lamblia ATCC 50803.
A further assay deals with HLA-C*06:02. The assay can be described thus: IEDB peptide-MHC binding, purified MHC/direct/fluorescence; filed as Kd, often an IC50 or EC50 that approximates it; ≥ and ≤ were set here for values at or beyond the usual limits of such assays. Conditions: source organism: Yellow fever virus.
A further assay addresses HLA-C*07:02. The description is as above. Conditions: source organism: Yellow fever virus.
In a further assay the target is HLA-C*14:02. The assay is described as above. Conditions: source organism: Yellow fever virus.
Another assay addresses HLA-C*15:02. The assay is described as above. Conditions: source organism: Yellow fever virus.
For another assay, the target named is HLA-A*01:01. The assay is described as above.
Assay [2] addresses HLA-A*02:01. The description is as above.
Another assay has as its target HLA-A*03:01. The description is as above.
In assay [3] the target is HLA-A*11:01. The description is as above. Conditions: source organism: Mycobacterium tuberculosis.
In assay [4] the target is HLA-A*31:01. The description is as above.
A further assay concerns the target HLA-A*69:01. The description is as above.
For assay [5], the target named is HLA-B*08:01. Described as above.
In another assay the target is HLA-B*08:02. Described as above.
Assay [6] concerns the target HLA-B*15:01. The description is as above. Conditions: source organism: Mycobacterium tuberculosis.
The target in the next assay is HLA-B*15:09. The assay is described as above.
Another assay deals with HLA-B*15:17. Described as above.
In the next assay the target is HLA-B*18:01. Described as above. Conditions: source organism: Mycobacterium tuberculosis.
The target of the next assay is HLA-B*27:05. The assay is described as above.
A further assay addresses HLA-B*38:01. The assay is described as above.
In assay [7] the target is HLA-B*40:01. The assay is described as above.
Assay [8] concerns the target HLA-B*46:01. Described as above.
Another assay deals with HLA-B*48:01. Described as above.
In another assay the target is HLA-B*51:01. The description is as above. Conditions: source organism: Mycobacterium tuberculosis.
Assay [9] deals with HLA-B*57:01. The assay is described as above.
The target of the next assay is HLA-B*58:01. The assay is described as above.
In assay [10] the target is HLA-B*15:01. The assay can be described thus: IEDB peptide-MHC binding, purified MHC/competitive/fluorescence; filed as Kd, often an IC50 or EC50 that approximates it; ≥ and ≤ were set here for values at or beyond the usual limits of such assays.
Assay [11] has as its target HLA-B*40:01. The description is as above.
The target in assay [12] is HLA-B*39:01. The assay can be described thus: IEDB peptide-MHC binding, purified MHC/direct/fluorescence; filed as Kd, often an IC50 or EC50 that approximates it; ≥ and ≤ were set here for values at or beyond the usual limits of such assays.
In assay [13] the target is HLA-A*11:01. The assay can be described thus: IEDB peptide-MHC binding, purified MHC/competitive/fluorescence; filed as Kd, often an IC50 or EC50 that approximates it; ≥ and ≤ were set here for values at or beyond the usual limits of such assays. Conditions: source organism: Influenza A virus (A/duck/Hong Kong/3096/99(H6N2)).
The target in assay [14] is HLA-A*31:01. The assay is described as above. Conditions: source organism: Mycobacterium tuberculosis variant bovis BCG str. Pasteur 1173P2.
Assay [15] addresses HLA-B*08:01. The description is as above. Conditions: source organism: Mycobacterium tuberculosis variant bovis BCG str. Pasteur 1173P2.
For assay [16], the target named is HLA-B*57:01. Described as above. Conditions: source organism: Mycobacterium tuberculosis variant bovis BCG str. Pasteur 1173P2.
Assay [17] addresses HLA-A*02:01. The assay is described as above. Conditions: source organism: Shigella boydii CDC 3083-94.
For another assay, the target named is HLA-B*07:02. The assay is described as above. Conditions: source organism: Shigella boydii CDC 3083-94.
In assay [18] the target is HLA-B*39:01. The description is as above. Conditions: source organism: Shigella boydii CDC 3083-94.
[19] abbreviates: source organism: Giardia lamblia ATCC 50803.
Where [20] appears, read: source organism: Yellow fever virus.
[21] abbreviates: source organism: Mycobacterium tuberculosis.
Where [22] appears, read: source organism: Mycobacterium tuberculosis str. Haarlem.
[23] abbreviates: source organism: Escherichia coli 536.
Setting [24] is: source organism: Influenza A virus (A/swine/Miyagi/5/2003(H1N2)).
Setting [25] is: source organism: Influenza A virus(A/swine/Shandong/fZC/2003(H9N2)).
[26] abbreviates: source organism: Shigella boydii CDC 3083-94.

On to YSAEALLPY, for which the Kd (as a rule, a measure of binding affinity in units of concentration) with HLA-A*26:01 (setting [19]) was found to be 0.009 µM; in the assay with HLA-A*26:02 (setting [19]), 0.003 µM; with HLA-C*12:03 (setting [19]) it was 0.013 µM; with HLA-B*46:01 [1], 0.0551 µM.

With YVIRDLAAM, the Kd was ≤ 0.001 µM in the assay with HLA-A*26:02 (setting [20]); ≥ 20 µM with HLA-C*06:02; 0.59 µM with HLA-C*07:02; 0.023 µM in the assay with HLA-C*12:03 (setting [20]); 0.079 µM in the assay with HLA-C*14:02; 0.274 µM in the assay with HLA-C*15:02.

In the case of VPRDRNGTF, the Kd in the assay with HLA-A*01:01 (setting [21]), with HLA-A*02:01 [2] (setting [21]), in the assay with HLA-A*03:01 (setting [21]), with HLA-A*11:01 [3], with HLA-A*31:01 [4] (setting [21]) and in the assay with HLA-A*69:01 (setting [21]) was ≥ 20 µM throughout. The dissociation constant Kd is 0.624 µM with HLA-B*08:01 [5] (setting [22]); 19 µM with HLA-B*08:02 (setting [22]); ≥ 20 µM with HLA-B*15:01 [6]; ≥ 20 µM with HLA-B*15:09 (setting [22]); ≥ 20 µM with HLA-B*15:17 (setting [21]); ≥ 20 µM with HLA-B*18:01. The Kd with HLA-B*27:05 (setting [21]), in the assay with HLA-B*38:01 (setting [22]), with HLA-B*40:01 [7] (setting [21]), with HLA-B*46:01 [8] (setting [21]), with HLA-B*48:01 (setting [21]) and with HLA-B*51:01 was ≥ 20 µM in each case. Also, the Kd with HLA-B*57:01 [9] (setting [21]) and in the assay with HLA-B*58:01 (setting [21]) was ≥ 20 µM in each case.

Regarding YEDEDIIVI, the Kd in the assay with HLA-B*15:01 [10] (setting [23]) was found to be 3.5 µM; with HLA-B*40:01 [11] (setting [23]), 0.0043 µM.

In the case of GTEKLTITY, the Kd is 0.0083 µM with HLA-A*01:01 (setting [24]); ≥ 20 µM with HLA-A*02:01 [2] (setting [24]); ≥ 20 µM with HLA-A*03:01 (setting [24]); ≥ 20 µM with HLA-A*26:01 (setting [25]); ≥ 20 µM with HLA-A*31:01 [4] (setting [24]); ≥ 20 µM with HLA-A*69:01 (setting [24]). The Kd with HLA-B*08:01 [5] (setting [25]) is ≥ 20 µM; with HLA-B*08:02 (setting [25]) it was ≥ 20 µM; in the assay with HLA-B*15:09 (setting [25]) it was ≥ 20 µM; in the assay with HLA-B*15:17 (setting [24]), 0.0065 µM; in the assay with HLA-B*27:05 (setting [24]) it was ≥ 20 µM; in the assay with HLA-B*38:01 (setting [25]) it was ≥ 20 µM. Besides, the Kd with HLA-B*39:01 [12] (setting [25]), with HLA-B*40:01 [7] (setting [24]), with HLA-B*46:01 [8] (setting [24]), with HLA-B*48:01 (setting [24]), in the assay with HLA-B*57:01 [9] (setting [24]) and in the assay with HLA-B*58:01 (setting [24]) was ≥ 20 µM in each case. Further, the dissociation constant (Kd) with HLA-A*11:01 [13] and in the assay with HLA-B*15:01 [10] (source organism: Influenza A virus (A/duck/Hong Kong/3096/99(H6N2))) was ≥ 20 µM in each case.

Regarding RIRSERPAF, the Kd with HLA-A*01:01 (setting [21]) was ≥ 20 µM; with HLA-A*02:01 [2] (setting [21]) it was ≥ 20 µM; with HLA-A*03:01 (setting [22]), 0.381 µM; with HLA-A*11:01 [3] it was ≥ 20 µM; in the assay with HLA-A*69:01 (setting [21]), ≥ 20 µM; in the assay with HLA-B*15:01 [6], 0.0278 µM. Further, the dissociation constant Kd in the assay with HLA-B*15:09 (setting [22]), with HLA-B*18:01, in the assay with HLA-B*27:05 (setting [21]), with HLA-B*39:01 [12] (setting [22]), with HLA-B*40:01 [7] (setting [21]) and with HLA-B*46:01 [8] (setting [21]) was ≥ 20 µM each time. Further, the Kd is ≥ 20 µM with HLA-B*48:01 (setting [21]); ≥ 20 µM with HLA-B*51:01; ≥ 20 µM with HLA-B*58:01 (setting [21]); 0.982 µM with HLA-A*31:01 [14]; 2.25 µM with HLA-B*08:01 [15]; 0.935 µM with HLA-B*57:01 [16].

For QEPGIFCAI, the Kd in the assay with HLA-A*02:01 [17] is 0.116 µM; with HLA-B*07:02, ≥ 20 µM; in the assay with HLA-B*15:01 [10] (setting [26]) it was ≥ 20 µM; with HLA-B*39:01 [18], 0.496 µM; with HLA-B*40:01 [11] (setting [26]), 0.0105 µM.

Values taken from the Immune Epitope Database (IEDB).
